Experimental findings from the supplement of paper PMC12042874 are described below.

± gives the uncertainty stated by the source.

This data set in a line: amyloid nucleation score (Sup35N fusion, yeast selection) (log enrichment); library NNK3; higher = more nucleation; inactive = no reads after selection. In short, it runs like this: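 The nucleation score equals the log enrichment of output over input reads from DiMSum, centred on the mode score of non-aggregating sequences. It was computed only for sequences with 100 or more input reads. The reads came from Illumina sequencing of plasmid inserts from psi-negative yeast expressing Sup35N fused to peptides of 20 random codons, induced with 100 μM copper sulfate for 24 hours and grown 7 days at 30°C without adenine and uracil.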
For the substance RNVTRGYYMYFKRMVRHYWG, the amyloid nucleation score result was “inactive”. The same measure for GCFIGDVRMSMSCSKFLCIE: 0.381 ± 0.15.

Take VSLKVFYGNKDARNRDIPTL: the amyloid nucleation score result was “inactive”. As for TQLFGGFPTEGQMMYPPRSS, the amyloid nucleation score entry was “inactive”. For DGVLSVGSLCNDRFVLEMYG the value was -0.432 ± 1. The same measure for QPVTRLFFISGSRGDLVEKH: “inactive”; for YDRGLISWTCVRVSS: “inactive”.

Consider VGAGWYN, for which the amyloid nucleation score result was “inactive”. For GSACFPYFYTYSFRFLVAC the value was “inactive”; for IHLIVWGPSSTLVMVFMEVM, “inactive”.

As to IKGFRGLLFEVSYHSPELGW, the amyloid nucleation score entry was “inactive”. For QRDHMGFSGDLW the value was “inactive”; for SSYLI, “inactive”; for YIFEPV, 0.318 ± 0.77.

For the substance AFYFRT, the amyloid nucleation score entry was “inactive”. For HEQDVAPKCWMYVELNQLGW, the amyloid nucleation score came out at 0.688 ± 0.2. PNISGGDAIEGLFFFRVGRE came in with an amyloid nucleation score of 1.04 ± 0.14.

For the substance YCAFLTNPHVLDFSMNCCKL, the amyloid nucleation score came out at 2.29 ± 0.059.

Take DHVAG: the amyloid nucleation score result is “inactive”. As to TWVILCKNSWFMLI, the amyloid nucleation score result is “inactive”. TPSVRRGVMGVSPELCAMVG: the amyloid nucleation score result is “inactive”. The same measure for CSPKPNKKAAMYKSAYNPGM: 0.629 ± 0.17; for FGEVNIAYRMIMRMSGQGGK: 0.998 ± 0.17; for TNTSFSNWRCTPDRGIM: “inactive”. The same measure for GSLVRV: “inactive”; for SVIGTSTSFCLHWLWGWALC: “inactive”. The same measure for YVDTAHHGSFENLECVEGLC: “inactive”; for FYPLICQRLKRSNIPGVWP: “inactive”. On to GGYSQKLYILYDYLFENYYS, for which the amyloid nucleation score result is “inactive”. The same measure for TVLVTMFKIEEQLTF: “inactive”; for CNMRVERLMSLFSL: “inactive”; for FVKSVRYSL: 1.45 ± 0.064. For FDERRSRGPSKSMKGLLTTY the value was “inactive”; for EKCWFQVCCTRSLGKSGIIC, “inactive”. As for HSRLFLGNVTCYWVHEVSLI, the amyloid nucleation score entry was “inactive”.

As to SYCYSIAMLAMIFLLMQCVI, the amyloid nucleation score was -0.011 ± 0.43. The same measure for GLFIGYDVQ: “inactive”; for FVSLLWLRGDVVHALFIQWM: “inactive”. For ALRARERWLRLPALAWKVMY the value was “inactive”; for CVFRYLVHHERMSYILNAGC, “inactive”. Consider FMPANAFWTKFCSARNRLYI, for which the amyloid nucleation score was -0.135 ± 0.57. The same measure for FEDCSTLH: -0.482 ± 0.84. Turning to EVFEWSVRLFSTL, the amyloid nucleation score result is “inactive”. Consider RTYMVII, for which the amyloid nucleation score entry was “inactive”.

Take SRWTEACI: the amyloid nucleation score entry was “inactive”. For ITNFIRWNTNV the value was “inactive”.

As to SFPASFSYRNGFVWLNFWVV, the amyloid nucleation score result was “inactive”.

In the case of QGYLRKYPVTGICVIYECDG, the amyloid nucleation score result is “inactive”. With LCISVPNFSLAFLSLGWLCK, the amyloid nucleation score result is “inactive”. FHFYGFCLYAYFSAIEDQNC yielded an amyloid nucleation score of 2.06 ± 0.071. The same measure for VGGQWGAYAAKA: “inactive”; for LKCSR: “inactive”; for GVSIGNCTMKGEVDFMVDGK: “inactive”.

RPKPNRSRTIASQLETKSGW gave an amyloid nucleation score of -0.727 ± 1.1. In the case of SSPCSVMVKVGSDHFERVAI, the amyloid nucleation score entry was “inactive”.

On to WRYYRAYKVITHIKFLFFTE, for which the amyloid nucleation score result is “inactive”.

In the case of LWSWDDIHPFCLILLLTRCP, the amyloid nucleation score result is “inactive”.

RSWIGTKGPL: the amyloid nucleation score result is “inactive”. The same measure for NPMGWGQLTGCFHYVAMFCS: “inactive”; for CFAYG: -0.533 ± 0.4. On to SASRKNNQDVCGNCAVVGEF, for which the amyloid nucleation score entry was “inactive”. The same measure for NKNSVFSLSYPYYVTCVGTY: “inactive”; for SFLYYRFVLVGIFLRVAGRF: “inactive”; for TTTLDSQSNNMFGAS: “inactive”. For SPVVIRFTLLIKCRWLVVWI the value was “inactive”. In the case of HVTIYGPET, the amyloid nucleation score entry is “inactive”.

As to DNLQVTRCYLADWMSSVT, the amyloid nucleation score result was “inactive”.

Consider TYENDLC, for which the amyloid nucleation score result was “inactive”. For SSSATGPAYGNKQATFRRLV the value was -0.457 ± 0.9. For NSGNSIAVAAALDKDTLQAG the value was “inactive”; for LWFPVEGGYPPSDVKQKHIS, 0.086 ± 0.31; for IQDHYSDPAN, “inactive”.

On to KYCHIYFNICLWLAYSLSFL, for which the amyloid nucleation score entry is “inactive”. For YYPSEQTIGWPKLTFVDVVL the value was “inactive”.

Take AFSFMLACWQRRIAQALAYL: the amyloid nucleation score result was “inactive”. Take YCSLLSDERGSSVTGILAVF: the amyloid nucleation score result was “inactive”. The same measure for FSWSLSLLHIPYKQWRGRWV: “inactive”.

On to GSMIFFSICSHFLYLLHTYT, for which the amyloid nucleation score result was “inactive”.

Take IVKTPVCSVTRRYPFSDRLL: the amyloid nucleation score entry is “inactive”. The same measure for GVYMQSLLYRCFVFYNYKLD: “inactive”; for MFLQSGDFPM: “inactive”; for DRVSFSITY: “inactive”. For YITLRGLWRYCQVMLVYVWK the value was “inactive”; for SGVCYFHARTRKSSSLRELV, 1.2 ± 0.12; for ALSVFRGLCVLENFSKISGC, “inactive”. The same measure for HHIFVFQGLASLNLHTDWML: 1.62 ± 0.1. In the case of RSFSLGRLSYYRGVTNILLA, the amyloid nucleation score result is “inactive”. The same measure for SELHRNRPTKLGFCRYESQV: “inactive”; for LNRANNGVVYQMGVRDFQSS: “inactive”.

For QFPSFANIIANCPLGFLWYA, the amyloid nucleation score result is “inactive”.

The substance DFAVGLLVHWHNPHYNTELQ returned an amyloid nucleation score of 1.25 ± 0.13. The same measure for LFDLRDNVCSRVSRNYTAGA: “inactive”; for DRGRMCMNAFPFLCWIWFHG: “inactive”; for HLSRNVRLS: “inactive”. The same measure for GERTVLVKGLMRCIWVPVIW: “inactive”. The same measure for MRRSMAVAMNRSVLYDEC: 0.581 ± 0.16; for SNYVMKVYRACHQVQPTISA: “inactive”.
